The target of the data set is T1, NT-L +278 VP16 (R23570V) (Xanthomonas sp. (engineered), UniProt P14727 SEQ:1-1013).
T1 chain: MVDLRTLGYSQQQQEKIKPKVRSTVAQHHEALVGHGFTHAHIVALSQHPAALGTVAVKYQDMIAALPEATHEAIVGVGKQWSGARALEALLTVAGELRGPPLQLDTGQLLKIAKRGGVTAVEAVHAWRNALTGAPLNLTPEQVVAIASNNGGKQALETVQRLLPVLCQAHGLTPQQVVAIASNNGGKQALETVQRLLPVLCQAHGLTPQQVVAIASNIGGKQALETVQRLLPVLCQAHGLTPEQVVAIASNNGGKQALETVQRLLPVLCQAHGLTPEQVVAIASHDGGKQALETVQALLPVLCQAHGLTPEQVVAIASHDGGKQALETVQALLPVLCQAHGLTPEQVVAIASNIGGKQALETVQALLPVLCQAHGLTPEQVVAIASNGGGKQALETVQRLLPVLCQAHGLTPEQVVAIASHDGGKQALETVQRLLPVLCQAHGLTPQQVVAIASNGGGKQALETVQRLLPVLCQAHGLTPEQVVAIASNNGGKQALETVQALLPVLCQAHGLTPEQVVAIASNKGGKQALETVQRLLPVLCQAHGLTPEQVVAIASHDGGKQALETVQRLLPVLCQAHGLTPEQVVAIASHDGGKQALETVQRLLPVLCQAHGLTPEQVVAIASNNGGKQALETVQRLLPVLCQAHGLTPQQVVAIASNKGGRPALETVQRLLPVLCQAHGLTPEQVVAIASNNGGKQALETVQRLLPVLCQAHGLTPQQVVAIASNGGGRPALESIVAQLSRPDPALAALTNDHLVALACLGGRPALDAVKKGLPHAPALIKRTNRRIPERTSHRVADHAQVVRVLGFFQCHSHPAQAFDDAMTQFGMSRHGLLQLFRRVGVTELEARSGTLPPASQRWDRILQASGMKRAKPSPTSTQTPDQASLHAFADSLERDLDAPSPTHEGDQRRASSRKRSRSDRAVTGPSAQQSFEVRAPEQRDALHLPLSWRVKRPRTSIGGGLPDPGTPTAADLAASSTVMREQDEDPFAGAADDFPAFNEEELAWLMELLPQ
The data set is described as follows: cell_activity; luciferase reporter with 2 sites. The conditions noted are these: tags: VP16.

The values below come from US20110301073, “Novel DNA-binding proteins and uses thereof” (Sangamo BioSciences, Inc., published 2011).

B1: NT-L target (NTF3 promoter) (dsDNA)
DNA 1: GGAGCCATCTGGCCGGGT
DNA 2: ACCCGGCCAGATGGCTCC
For the molecule B1, the activity stood at 74.5 fold activation.
